In patent publication US20220125885A1, “GLUCAGON ANALOG AGONISTS AND METHODS OF USING THE SAME” (Eli Lilly and Company, priority 2019, published 2022):
Where no end group is shown, it is not given here. [ ]: non-standard residue; d: D form. 4Pal = N[C@@H](Cc1ccncc1)C(=O)O; Dab = NCC[C@H](N)C(=O)O; Aib = CC(C)(N)C(=O)O

T1: human GIP receptor (hGIP-R) (Homo sapiens, UniProt P48546)
T1 construct: expressed in transfected cells; host or cells: HEK-293 clonal cell line
T1 sequence (P48546 22-466): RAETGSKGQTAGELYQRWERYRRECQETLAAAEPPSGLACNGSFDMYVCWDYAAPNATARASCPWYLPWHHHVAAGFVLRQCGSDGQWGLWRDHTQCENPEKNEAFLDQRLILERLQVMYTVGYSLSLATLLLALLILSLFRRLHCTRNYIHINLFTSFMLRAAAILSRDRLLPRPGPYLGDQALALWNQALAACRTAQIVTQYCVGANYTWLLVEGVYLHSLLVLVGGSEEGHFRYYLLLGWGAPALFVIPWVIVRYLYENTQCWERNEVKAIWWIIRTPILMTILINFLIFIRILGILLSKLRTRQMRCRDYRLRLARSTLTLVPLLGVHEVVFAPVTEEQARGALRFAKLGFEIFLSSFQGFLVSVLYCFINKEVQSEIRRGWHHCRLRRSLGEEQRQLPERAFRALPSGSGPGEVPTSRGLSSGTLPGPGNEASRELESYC


Assays:
[1] = molecular target: T1, human GIP receptor (hGIP-R); test: cAMP functional activity assay, hGIP-R HEK-293 cells; type: cell-based
Description: After a sixty-minute incubation at room temperature, the resulting increase in intracellular cAMP is quantitatively determined using a cAMP Dynamic 2 HTRF Assay Kit (62AM4PEJ; CisBio; Codolet, FR). Briefly, cAMP levels within the cell are detected by adding a cAMP-d2 conjugate in cell lysis buffer (10 μl) followed by an anti-cAMP-Eu3+-Cryptate antibody, also in cell lysis buffer (10 μl). […] A relative EC50 value and percent top (Emax) are derived by non-linear regression analysis using the percent maximal response vs. the concentration of peptide added, fitted to a four-parameter logistic equation.

[2] = molecular target: T2, human GLP-1 receptor (hGLP-1R) (Homo sapiens, UniProt P43220); test: cAMP functional activity assay, hGLP-1R HEK-293 cells; type: cell-based; conditions: HEK293; percent of response to 10 nM GLP-1(7-36)NH2; mean ± SEM
T2 construct: expressed in transfected cells; host or cells: HEK-293 clonal cell line

in vivo = conditions: male, Yucatan miniature swine, pig, sc, 10 ug/kg
Description: 1. […] The compounds and an analog as an internal standard are extracted from […] by antibody or protein precipitations. The intact mass of the compounds are detected by a Q Exactive® Orbitrap® Mass Spectrometer (Thermo Fisher Scientific; Waltham, Mass.). 2. […] Blood is collected at pre-dose, 2, 5, 10, 15, 20, 25, 30, 45, 60, 75, 90, 120 and 150 minutes post-dose, and plasma is obtained for pharmacokinetic characterization. […] Blood is collected at pre-dose, 2, 5, 10, 15, 20, 25, 30, 45, 60, 75, 90, 120 and 150 minutes postdose, and plasma is obtained for pharmacokinetic characterization.

[3] = molecular target: human GIP receptor (human) (UniProt P48546); test: cell-based or functional assay
human glucagon receptor [4] = molecular target: T3, human glucagon receptor (human, UniProt P47871 26-477); test: cell-based or functional assay
human GLP-1 receptor [5] = molecular target: T4, human GLP-1 receptor (human, UniProt P43220 24-463); test: cell-based or functional assay
human glucagon receptor [6] = molecular target: T3, human glucagon receptor; test: cell-based or functional assay; remark: listed apart in the source
human GLP-1 receptor [7] = molecular target: T4, human GLP-1 receptor; test: cell-based or functional assay; remark: listed apart in the source
rat glucagon receptor [8] = molecular target: T5, rat glucagon receptor (rat, UniProt P30082 27-485); test: cell-based or functional assay
human glucagon receptor [9] = molecular target: T3, human glucagon receptor; test: SPA competition with 125I-labelled glucagon on hGCGR membranes
Excerpt: (§1) Plates are sealed, mixed on a plate shaker, and read with a MicroBeta™ scintillation counter (PerkinElmer) after 12 hr of settling time at room temperature.

rat glucagon receptor [10] = molecular target: T5, rat glucagon receptor; test: SPA competition with 125I-labelled glucagon on rGCGR membranes
Description: as §1
The SPA receptor binding assay and calculation of the results are carried out as described in the hGCGR binding assay.

T5 sequence (P30082 27-485): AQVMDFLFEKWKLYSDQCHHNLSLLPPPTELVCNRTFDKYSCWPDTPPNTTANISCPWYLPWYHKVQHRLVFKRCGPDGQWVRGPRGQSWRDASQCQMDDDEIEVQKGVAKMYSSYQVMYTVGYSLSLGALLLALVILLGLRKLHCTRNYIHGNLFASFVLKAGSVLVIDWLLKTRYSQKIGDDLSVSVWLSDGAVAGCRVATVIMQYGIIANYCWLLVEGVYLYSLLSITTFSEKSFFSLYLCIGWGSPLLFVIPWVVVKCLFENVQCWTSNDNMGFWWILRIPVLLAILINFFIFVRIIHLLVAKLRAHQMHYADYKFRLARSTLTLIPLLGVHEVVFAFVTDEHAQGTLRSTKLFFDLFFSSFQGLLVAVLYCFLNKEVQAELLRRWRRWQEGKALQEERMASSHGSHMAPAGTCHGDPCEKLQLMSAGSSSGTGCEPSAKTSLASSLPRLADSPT
T3 sequence (P47871 26-477): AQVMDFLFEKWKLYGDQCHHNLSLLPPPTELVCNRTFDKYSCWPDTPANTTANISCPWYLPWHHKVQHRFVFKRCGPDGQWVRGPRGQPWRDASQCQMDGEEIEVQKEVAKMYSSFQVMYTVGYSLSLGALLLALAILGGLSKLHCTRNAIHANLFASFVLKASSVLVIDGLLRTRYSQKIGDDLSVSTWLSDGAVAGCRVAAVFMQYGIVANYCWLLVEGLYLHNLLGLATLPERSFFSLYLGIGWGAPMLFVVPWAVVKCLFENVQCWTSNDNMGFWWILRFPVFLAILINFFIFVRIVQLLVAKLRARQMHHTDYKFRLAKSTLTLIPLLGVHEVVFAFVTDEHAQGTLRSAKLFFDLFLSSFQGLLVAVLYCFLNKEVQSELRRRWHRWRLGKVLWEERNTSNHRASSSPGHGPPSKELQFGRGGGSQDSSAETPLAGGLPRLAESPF
T2 sequence (P43220 24-463): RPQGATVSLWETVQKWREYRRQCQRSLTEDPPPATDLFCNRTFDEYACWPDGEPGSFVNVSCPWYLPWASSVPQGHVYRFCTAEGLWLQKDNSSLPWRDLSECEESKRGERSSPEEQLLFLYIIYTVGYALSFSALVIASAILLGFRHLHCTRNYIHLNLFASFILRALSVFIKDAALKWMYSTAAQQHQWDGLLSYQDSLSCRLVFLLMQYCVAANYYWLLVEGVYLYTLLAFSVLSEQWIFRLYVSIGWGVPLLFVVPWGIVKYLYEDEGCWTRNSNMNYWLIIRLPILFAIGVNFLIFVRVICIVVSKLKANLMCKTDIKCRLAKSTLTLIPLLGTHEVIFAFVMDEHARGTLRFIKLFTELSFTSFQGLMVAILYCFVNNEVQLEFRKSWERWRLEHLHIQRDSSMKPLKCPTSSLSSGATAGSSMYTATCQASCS

| Molecule | Emax at 9.95 µM ([1]; HEK293, percent of response to 10 nM GIP(1-42)NH2, Examples at 9.95 μM, read-out: Emax hGIPR) | EC50 ([1]; in the presence of FBS and BSA, read-out: cAMP EC50 hGIPR) | Emax [2] | AUC(0-inf) (in vivo; AUC0-inf) | CL/F (in vivo; CL/F) | Emax (% of response to 10 nM GIP(1-42)NH2), at 9.95 µM [3] | cAMP EC50 [3] | cAMP EC50 (human glucagon receptor [4]) | cAMP EC50 (human GLP-1 receptor [5]) | Emax (% of response to 1 nM Glucagon) (human glucagon receptor [6]) | Emax (% of response to 10 nM GLP-1(7-36)NH2) (human GLP-1 receptor [7]) | cAMP EC50 (rat glucagon receptor [8]) | Ki (human glucagon receptor [9]) | Ki (rat glucagon receptor [10]) |
| --- | --- | --- | --- | --- | --- | --- | --- | --- | --- | --- | --- | --- | --- | --- |
| HSQGTFTSDYSKYLD[Aib]RRAQQFVK[4Pal]LLST-OH (N-terminus assumed; SMILES CC(C)C[C@H](NC(=O)[C@H](Cc1ccncc1)NC(=O)[C@H](CCCCN)NC(=O)[C@@H](NC(=O)[C@H](Cc1ccccc1)NC(=O)[C@H](CCC(N)=O)NC(=O)[C@H](CCC(N)=O)NC(=O)[C@H](C)NC(=O)[C@H](CCCNC(=N)N)NC(=O)[C@H](CCCNC(=N)N)NC(=O)C(C)(C)NC(=O)[C@H](CC(=O)O)NC(=O)[C@H](CC(C)C)NC(=O)[C@H](Cc1ccc(O)cc1)NC(=O)[C@H](CCCCN)NC(=O)[C@H](CO)NC(=O)[C@H](Cc1ccc(O)cc1)NC(=O)[C@H](CC(=O)O)NC(=O)[C@H](CO)NC(=O)[C@@H](NC(=O)[C@H](Cc1ccccc1)NC(=O)[C@@H](NC(=O)CNC(=O)[C@H](CCC(N)=O)NC(=O)[C@H](CO)NC(=O)[C@@H](N)Cc1c[nH]cn1)[C@@H](C)O)[C@@H](C)O)C(C)C)C(=O)N[C@@H](CC(C)C)C(=O)N[C@@H](CO)C(=O)N[C@H](C(=O)O)[C@@H](C)O) [Example 1 compound (glucagon analog agonist, SEQ ID NO:3)] |  |  |  |  |  | < 5% | > 9950 nM | 0.0143 nM | 181 nM | 103% | 105% | 0.135 nM | 3.18 nM | 17.4 nM |
| HS[Dab](Ac)GTFTSDYSKYLD[Aib]RRAQAFVK[4Pal]LLST-OH (N-terminus assumed; SMILES CC(=O)NCC[C@H](NC(=O)[C@H](CO)NC(=O)[C@@H](N)Cc1c[nH]cn1)C(=O)NCC(=O)N[C@H](C(=O)N[C@@H](Cc1ccccc1)C(=O)N[C@H](C(=O)N[C@@H](CO)C(=O)N[C@@H](CC(=O)O)C(=O)N[C@@H](Cc1ccc(O)cc1)C(=O)N[C@@H](CO)C(=O)N[C@@H](CCCCN)C(=O)N[C@@H](Cc1ccc(O)cc1)C(=O)N[C@@H](CC(C)C)C(=O)N[C@@H](CC(=O)O)C(=O)NC(C)(C)C(=O)N[C@@H](CCCNC(=N)N)C(=O)N[C@@H](CCCNC(=N)N)C(=O)N[C@@H](C)C(=O)N[C@@H](CCC(N)=O)C(=O)N[C@@H](C)C(=O)N[C@@H](Cc1ccccc1)C(=O)N[C@H](C(=O)N[C@@H](CCCCN)C(=O)N[C@@H](Cc1ccncc1)C(=O)N[C@@H](CC(C)C)C(=O)N[C@@H](CC(C)C)C(=O)N[C@@H](CO)C(=O)N[C@H](C(=O)O)[C@@H](C)O)C(C)C)[C@@H](C)O)[C@@H](C)O) [Example 3 compound (glucagon analog agonist, SEQ ID NO:5)] |  |  |  |  |  | < 5% | > 9950 nM | 0.0108 nM | 1300 nM |  | 109% | 0.188 nM | 2.08 nM | 21.7 nM |

The remaining lines, values ahead:

| Emax at 9.95 µM ([1]; HEK293, percent of response to 10 nM GIP(1-42)NH2, Examples at 9.95 μM, read-out: Emax hGIPR) | EC50 ([1]; in the presence of FBS and BSA, read-out: cAMP EC50 hGIPR) | Emax [2] | AUC(0-inf) (in vivo; AUC0-inf) | CL/F (in vivo; CL/F) | Emax (% of response to 10 nM GIP(1-42)NH2), at 9.95 µM [3] | cAMP EC50 [3] | cAMP EC50 (human glucagon receptor [4]) | cAMP EC50 (human GLP-1 receptor [5]) | Emax (% of response to 1 nM Glucagon) (human glucagon receptor [6]) | Emax (% of response to 10 nM GLP-1(7-36)NH2) (human GLP-1 receptor [7]) | cAMP EC50 (rat glucagon receptor [8]) | Ki (human glucagon receptor [9]) | Ki (rat glucagon receptor [10]) | Molecule |
| --- | --- | --- | --- | --- | --- | --- | --- | --- | --- | --- | --- | --- | --- | --- |
| < 5% | > 9950 nM | 109 ± 4% | 1.92 ng·h/mL | 87 mL/min/kg |  |  |  |  |  |  |  |  |  | CC(C)C[C@H](NC(=O)[C@H](Cc1ccncc1)NC(=O)[C@H](CCCCN)NC(=O)[C@@H](NC(=O)[C@H](Cc1ccccc1)NC(=O)[C@H](C)NC(=O)[C@H](CCC(N)=O)NC(=O)[C@H](C)NC(=O)[C@H](CCCNC(=N)N)NC(=O)[C@H](CCCNC(=N)N)NC(=O)C(C)(C)NC(=O)[C@H](CC(=O)O)NC(=O)[C@H](CC(C)C)NC(=O)[C@H](Cc1ccc(O)cc1)NC(=O)[C@H](CCCCN)NC(=O)[C@H](CO)NC(=O)[C@H](Cc1ccc(O)cc1)NC(=O)[C@H](CC(=O)O)NC(=O)[C@H](CO)NC(=O)[C@@H](NC(=O)[C@H](Cc1ccccc1)NC(=O)[C@@H](NC(=O)CNC(=O)[C@H](CCC(N)=O)NC(=O)[C@H](CO)NC(=O)[C@@H](N)Cc1c[nH]cn1)[C@@H](C)O)[C@@H](C)O)C(C)C)C(=O)N[C@@H](CC(C)C)C(=O)N[C@@H](CO)C(=O)N[C@H](C(=O)O)[C@@H](C)O [Example 2] |
|  |  |  |  |  | < 5% | > 9950 nM | 0.0265 nM | 250 nM |  | 109% | 0.204 nM | 6.87 nM | 34.2 nM | HSQGTFTSDYSKYLD[Aib]RRAQAFVK[4Pal]LLST-OH (N-terminus assumed; SMILES CC(C)C[C@H](NC(=O)[C@H](Cc1ccncc1)NC(=O)[C@H](CCCCN)NC(=O)[C@@H](NC(=O)[C@H](Cc1ccccc1)NC(=O)[C@H](C)NC(=O)[C@H](CCC(N)=O)NC(=O)[C@H](C)NC(=O)[C@H](CCCNC(=N)N)NC(=O)[C@H](CCCNC(=N)N)NC(=O)C(C)(C)NC(=O)[C@H](CC(=O)O)NC(=O)[C@H](CC(C)C)NC(=O)[C@H](Cc1ccc(O)cc1)NC(=O)[C@H](CCCCN)NC(=O)[C@H](CO)NC(=O)[C@H](Cc1ccc(O)cc1)NC(=O)[C@H](CC(=O)O)NC(=O)[C@H](CO)NC(=O)[C@@H](NC(=O)[C@H](Cc1ccccc1)NC(=O)[C@@H](NC(=O)CNC(=O)[C@H](CCC(N)=O)NC(=O)[C@H](CO)NC(=O)[C@@H](N)Cc1c[nH]cn1)[C@@H](C)O)[C@@H](C)O)C(C)C)C(=O)N[C@@H](CC(C)C)C(=O)N[C@@H](CO)C(=O)N[C@H](C(=O)O)[C@@H](C)O) [Example 2 compound (glucagon analog agonist, SEQ ID NO:4)] |
|  |  |  |  |  | < 5% | > 9950 nM | 0.00888 nM | 1270 nM | 98% | 100% | 0.083 nM | 1.2 nM | 13.5 nM | HS[Dab](Ac)GTFTSDYSKYLD[Aib]RRAQQFVK[4Pal]LLST-OH (N-terminus assumed; SMILES CC(=O)NCC[C@H](NC(=O)[C@H](CO)NC(=O)[C@@H](N)Cc1c[nH]cn1)C(=O)NCC(=O)N[C@H](C(=O)N[C@@H](Cc1ccccc1)C(=O)N[C@H](C(=O)N[C@@H](CO)C(=O)N[C@@H](CC(=O)O)C(=O)N[C@@H](Cc1ccc(O)cc1)C(=O)N[C@@H](CO)C(=O)N[C@@H](CCCCN)C(=O)N[C@@H](Cc1ccc(O)cc1)C(=O)N[C@@H](CC(C)C)C(=O)N[C@@H](CC(=O)O)C(=O)NC(C)(C)C(=O)N[C@@H](CCCNC(=N)N)C(=O)N[C@@H](CCCNC(=N)N)C(=O)N[C@@H](C)C(=O)N[C@@H](CCC(N)=O)C(=O)N[C@@H](CCC(N)=O)C(=O)N[C@@H](Cc1ccccc1)C(=O)N[C@H](C(=O)N[C@@H](CCCCN)C(=O)N[C@@H](Cc1ccncc1)C(=O)N[C@@H](CC(C)C)C(=O)N[C@@H](CC(C)C)C(=O)N[C@@H](CO)C(=O)N[C@H](C(=O)O)[C@@H](C)O)C(C)C)[C@@H](C)O)[C@@H](C)O) [Example 4 compound (glucagon analog agonist, SEQ ID NO:6)] |
